In the nanobody polyreactivity screen of Harvey et al. (2022):

Experiment: yeast display, Sf9 membrane polyspecificity reagent, FACS + sequencing; frameworks hold sequencing errors
Outline: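 Nanobodies came from a synthetic yeast display library in Saccharomyces cerevisiae BJ5465, induced with galactose for 36–48 hours and stained for 1 hour at 4 °C with 10% biotinylated, detergent-solubilized Sf9 membrane reagent. Cells were enriched on streptavidin microbeads and then FACS-sorted, with low and high (top ~1%) gates set on anti-HA fluorescence for expression and streptavidin fluorescence for reagent binding. Each polyreactivity label reflects the gate a clone came from. Genes were amplified by colony PCR, sequenced by MiSeq 2 × 250 and filtered by CDR length.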

Sequence: QVQLVESGGGLVQAGGSLRLSCAASGFTIGYYVMGWYRQAPGKDRELVAAITRSGSRTYYADSVKGRFTISRDNAKNTVYLQMNSLKPEETAVYYCAADYKTFLRSFDYWGQGTQVTVSS
- polyreactivity (PSR sort gate): high polyreactivity

Sequence: QVQLVESGGGLVQAGGSLLLSSADSGSTFNYNAMGWYRQSHGKERELVAVINSGGSTYYADSVKGRFTISRDNAKNTVYLQMNSLKPEDTAVYYCAAATYRQQWHYYWGQGTQGTVSS
- polyreactivity (PSR sort gate): high polyreactivity

Sequence: QVQLVESGGGLVQAGGSLRLSCAASGFTLDWYVMGWYRQAPGKERELVAAISSSGGRTYYADSVKGRFTISRDNAKNTVYLQMNSLKPEDPAVYYCAARNKYGGYPYGYDYWGQGTQVTVSS
- polyreactivity (PSR sort gate): high polyreactivity

Sequence: QVQLGDSGGGLVQAGGSLRLSCAASGRIFYGNAMGWYRQAPWKERELVAAISSGGGSTYYADSVKGRFTISRDNAKNTVYLQMNSLKPEDNAVYYCAADPVPRFPGTGGYWGQGTQVTVSS
- polyreactivity (PSR sort gate): low polyreactivity

Sequence: QVQLVESCGGLVQAGGSLRLSCAASVSTFLFYAMGWDRQAPRKERELVAAITSGDSTNYADSVKGRFTISRDNAKNTVYLQMNSLKPEDTAVYYCAASRFGAYYWGQGTQVTVSS
- polyreactivity (PSR sort gate): high polyreactivity

Sequence: QVQLVESGAGLVQAGGRLRISCAASGSTFDGNTMGWYRQAPGKERELVAAISGSGGSTYYADSVKGRFTISRDNAKNTVYLQMNSLKPEDTAVYYCAADFRVGRYDYWGQGTQVTVSS
- polyreactivity (PSR sort gate): high polyreactivity

Sequence: QVQLVESGGGLVQAGGSLRLSCAASGITFYFYTMGWYRPAPGKERELVAAITSSGGTTYYADSVKGRFTISRDNAKNTVYLQMNSLKPEDTAVYYCAARRWYQSRRGGFDYWGQGTQVTVSS
- polyreactivity (PSR sort gate): high polyreactivity

Sequence: QVHLVASGGGLVQAGGSLRLRCAASGFTIDTYAKGWYRQAPGKERDLVAGISWSGGSTYYADSVKGRFTISRDNAKNTVYLQRNSLNPEDTAVYYCAADYAGYPGRTRQRPGYDYWGQGTQVTVSS
- polyreactivity (PSR sort gate): low polyreactivity

Sequence: QYQLGESGGGLVQAGGSLRLSCAASGRIFTWNAMGWYRQAPGKERELVAAIRRGGGTYADSVKGRYTISRDNGKNTFYLQMHSLKPEDTAVYYCAATSGYYAMNYWGQGTQVTVSS
- polyreactivity (PSR sort gate): high polyreactivity

Sequence: QVQLVESGGGLVQAGGSLRLSCAASGSIFISYAMGWYRQAPGKERELVAAISRSAGRTYYADSVKGRFTISRDNAKNTVYLQMNSLKPEDTAVYYCAASGYKNGVYTYGYWGQGTQVTVSS
- polyreactivity (PSR sort gate): high polyreactivity

Sequence: QVQLVESGGGLVQAGGSLRLSCAASGSIFYLYAMGWYRPAPGKERELVARITIRGGSTYYADSVKGRFTISRDNAKNTVYLQMNSLKPEDTAVYYCAARRPYGDYDYWGQGTQVTVSS
- polyreactivity (PSR sort gate): high polyreactivity

Sequence: QVQLVESGGGLVQAGGSLRLSCAASGRTFARYDKGWYRQAPGKERELVAGINGDGGSTNYADSVKGRFTISRDNAKNTVYLQMNSLKPEDTAVFYCNVDQEDRKLHVSIKQLSDHWGQGTQVTVSS
- polyreactivity (PSR sort gate): low polyreactivity

Sequence: QVQLVESGGGLVQAGGSLRLSCAASGFTFFKYAMGWYRQAPGKERELVAAISSSGGSTYYADSVKGRFTISRDNAKNTVYLQMNSLKPEDTAVYYCNRPAAVYFKLVTAYDYWGQGTQVTVSS
- polyreactivity (PSR sort gate): high polyreactivity

Sequence: QVQLVESGGGLVQAGVSLRLSCAASGSTFTANAMGWYRQAPGKERELVAAITNSDGSTYYADSVKGRFTISRDNAKNTVYLQINSLKPEDTAVYYCAKDYYACFWEMDYWGQGTQVTVSS
- polyreactivity (PSR sort gate): low polyreactivity

Sequence: QVQLVESGGGLVQAGGSLRLSCAASGFTFTWYAMGWYRPAPGKERELVAAISSGGGRTYYADSVKGRFTISRDNAKNTVYLQMNSLKPEDTAVYYCNKVSSFGYYYWGQGTQVTVSS
- polyreactivity (PSR sort gate): high polyreactivity

Sequence: QVQLVESGGGLVQAGGSLRLSCAASGITFFRYTMGWYRQAPGKEREFVAAINIRGTRTYYADSVKGRFTISRDNAKNTVYLQMNSLKPEDTAVYYCAAGYAYRYSGLSYDVDYWGQGTQVTVSS
- polyreactivity (PSR sort gate): high polyreactivity

Sequence: QVQLVESGGGLVQAGGSLRLSCAASGFTFEWYTMGWYRQAPGKERELVADISGDGTTYYADSVKGRFTISRDNAKNTLYLQMNSLKPEDTAVYYCAARTVGRKAGFDYWGQGTQVTVSS
- polyreactivity (PSR sort gate): high polyreactivity

Sequence: QVQLVESCGGLVQPGGSLRLSCAASGSTFVNYAMGWYRQAPGKERELVAAITRGVRTYYADSVKGRFTISRDNAKNTVYLQMNSLKAEDTAVYYCNRAIGPYSYPDNYWGQGTQVTVSS
- polyreactivity (PSR sort gate): high polyreactivity

Sequence: QVQLVESGGGLVQAGGSLRLSCAASGSIFGTNAMGWYRQAPGKERELVAAIDGGSTTYYADSVKGRFTISRDNAKNTVYLQMNSLKPEDTAVYYCAADGSRYLNYEGYAGYEYWGQGTQVTVSS
- polyreactivity (PSR sort gate): low polyreactivity

Sequence: PVQLVESGGGLVQAGGSLRLSCAASGIIFYDYAMGWYRQAPGKERELGATITSGGSTNYADSVKGRFTISRDNAKNTVYLQLNSLKPEDTAVYYCAAGRGLILGGVYGYDYWGQGTQVTVSS
- polyreactivity (PSR sort gate): low polyreactivity

Sequence: QVQLVESGGGLVQAGGSLRLSCAASRSTFFHYAMGWNRQAPGKERELVAAISSDGITNYADSVKGRFTISRDNAKNTVYLQMNILIPEDTAVYYCNAETVSTVGLGYWGQGTQVTVSS
- polyreactivity (PSR sort gate): low polyreactivity

Sequence: QVQLVESGGGLVQAGGSLRLSCAASGFTFSNYAMGWYRQAPGKEREFVAAISGTGGSTYYADSVKGRFTISRDNAKNTVYLQMNSLKPEDTAVYYCARRRTYPPGRYYYWGQGTQVTVSS
- polyreactivity (PSR sort gate): high polyreactivity

Sequence: QVQLVESGGGLVQAGGSLRLSCAASGRIFRLYAMGWYRQAPGKERELVAAISKSGGSTYYADSVKGRFTISRDNAKNTVYLQMNSLKPEDTAVYYCAADYRTHGGYEGTFDYWGQGTQVTVSS
- polyreactivity (PSR sort gate): low polyreactivity

Sequence: QVQLVESGVGLVQAGGSHRFICAASGIIFYSYAMGWYRQAPGKEREFVAAITNSDGSTYYADTVKRRFTISRDNAKNTVYLQMNSLKPVDTAVYMYYWGQGTQVTVSS
- polyreactivity (PSR sort gate): low polyreactivity

Sequence: QVQLVESGGGLVQAGGSLRLSCAAYGSIFKRYAMGWYRQAPGKERELVASNSSSGSSTNYADSVKGRFTISRDTAKNTVYLQMNSLKPEDTSVYYCAADTKASGTPVYYSYLYDYWGQGTHVTVSS
- polyreactivity (PSR sort gate): high polyreactivity

Sequence: QVQHVESGGALVQAGGSLRLSCAASGRIFSPNAMGWYIQAPGKEWDLVAAISSGGSTYADSVKGRFTISRDNAKNTVYLQMNSLKPEDTAVYYCARTYQWTVAGRYRAYHAGYYWGQGTQVTVSS
- polyreactivity (PSR sort gate): high polyreactivity

Sequence: QVQLVESGGGLVQAGGSLLLSCAASGIIFRYNTMGLYRQAPGKERELVAAIRTTGGSTNYADSVKGRFTISRDNAKNTVYLQMNSLKPEDTAVYYCNKGVSSRAFDYWGQGTQVTVSS
- polyreactivity (PSR sort gate): low polyreactivity

Sequence: QVQLVESGGGLVQAGGSLRLSCAASGLIFSDYAMGWYRQAPGKERELVAAISGIGTRTSYADSVKGRFTISRDNAKNTVYLQMNSLKPEDTAVYYCAARYYGFPSTLKYDYWGQGTQVTVSS
- polyreactivity (PSR sort gate): high polyreactivity

Sequence: QVQLVESGGGLVQAGGILRLSCAASGSIFGWYAMGWYRQAPGKERELVAGISWSGANTYYADSVKGRFTISRDNAKNTVYLQMNSLKPEDTAVYYCAAGPGRYYSRRYGYWGQGTQVTVSS
- polyreactivity (PSR sort gate): high polyreactivity

Sequence: QVQLVESGGGLVQAGGSLRLSCAASGSIFAYYAMGWYRQAPGKERELVAAISSGGSTNYADSVKGRFTISRDNAKNPVYLQMNSLKPEDTAVYDCAKRSYYGLTYYSWGQGTQVTVSS
- polyreactivity (PSR sort gate): low polyreactivity

Sequence: QVQLVESGGGLVQAGGSLRLSCAASGNIFKWYAMGWYRQAPGKERELVAAISKSGGSTYYADSVKGRFTISRDNAKNTVYLQMNSLKPEDTAVYYCAAGWKHGTYRYTVESNFDYWGQGTQVTVSS
- polyreactivity (PSR sort gate): high polyreactivity

Sequence: QVQLVESGGGLVQAGGSLRLSCAASGSIFIYYAMGWYRQAPGKERELVAAISWSGGDTYYADSVKGRFTISRDNAKNTVYLQMNSLKPEDTAVYYCNADYDPYYPYTAWDTVLTHDEYWGQGTQVTVSS
- polyreactivity (PSR sort gate): low polyreactivity
